Patent US20250042957A1 (Molecular Partners, published 2025)
Where a chain is given by its changes, count along the chain named. Like-named read-outs stand apart in the source and are kept apart here.

Tests used:
scCD3εγ [1] = target: T1, scCD3εγ; assay: ELISA: plate-bound biotinylated scCD3εγ, His-tagged construct titrated in presence of 100 nM soluble VEGF
T1 chain 1: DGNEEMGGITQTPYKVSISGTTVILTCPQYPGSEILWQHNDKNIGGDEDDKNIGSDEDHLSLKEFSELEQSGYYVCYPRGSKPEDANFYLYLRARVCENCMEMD
T1 chain 2: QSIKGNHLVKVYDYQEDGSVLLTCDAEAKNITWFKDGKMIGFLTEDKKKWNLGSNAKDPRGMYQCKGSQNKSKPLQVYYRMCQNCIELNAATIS
Experimental: (§1) The difference in binding of Switchdrug DARPins to scCD3εγ in presence and absence of VEGF was assessed. […] Said Switchdrug DARPins were mixed with a constant concentration of VEGF (100 nM) and tested for binding to scCD3εγ. […] The difference in EC50 of a construct in presence and absence of VEGF can be referred to as the “activation window”.
(§2) Switchdrug DARPins that were mixed with VEGF were titrated and pre-incubated for 1 day with VEGF in order to establish the thermodynamic equilibrium. These samples were loaded on the ELISA plate, incubated and washed, before the bound Switchdrug DARPins were detected as described above.

scCD3εγ [2] = target: T1, scCD3εγ; assay: ELISA: plate-bound biotinylated scCD3εγ, His-tagged construct titrated without and with 100 nM soluble VEGF
Experimental: as §1, §2

[3] = target: T2, Aminoglycoside phosphotransferase (APH) (Enterococcus faecalis (Streptococcus …, UniProt P0A3Y5 2-264))
T2 chain: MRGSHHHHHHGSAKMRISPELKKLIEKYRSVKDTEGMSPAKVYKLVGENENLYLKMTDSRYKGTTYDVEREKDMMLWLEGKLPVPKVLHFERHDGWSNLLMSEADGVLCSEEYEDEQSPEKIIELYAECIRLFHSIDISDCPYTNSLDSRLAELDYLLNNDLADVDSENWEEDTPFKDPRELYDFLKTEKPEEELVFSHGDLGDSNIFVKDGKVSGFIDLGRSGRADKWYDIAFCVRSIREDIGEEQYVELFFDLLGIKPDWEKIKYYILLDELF

VEGF165 = target: T3, VEGF165 (UniProt P15692-4 27-191, biotinylated in the ELISA of Example 4 (site not stated)); assay: ELISA: plate-bound biotinylated VEGF165, His-tagged construct titrated, no soluble VEGF, anti-His-HRP detection
T3 construct: also called biotinylated VEGF165; soluble VEGF
T3 sequence (P15692 other isoform, or with tags, fused parts or gaps limits assumed): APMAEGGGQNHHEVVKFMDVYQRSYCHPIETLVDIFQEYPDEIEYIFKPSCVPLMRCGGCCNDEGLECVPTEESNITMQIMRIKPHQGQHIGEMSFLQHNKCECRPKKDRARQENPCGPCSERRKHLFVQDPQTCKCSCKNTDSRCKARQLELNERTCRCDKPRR

scCD3εγ [4] = target: T1, scCD3εγ; assay: ELISA: plate-bound biotinylated scCD3εγ, His-tagged construct titrated in presence of 100 nM soluble VEGF
Experimental: as §1, §2

scCD3εγ [5] = target: T1, scCD3εγ; assay: ELISA: plate-bound biotinylated scCD3εγ, His-tagged construct titrated without and with 100 nM soluble VEGF
Experimental: as §1, §2

scCD3εγ [6] = target: T1, scCD3εγ; assay: as above
Experimental: as §1, §2

[7] = target: T2, Aminoglycoside phosphotransferase (APH); assay: ELISA on APH, DARPin titrated
[8] = target: Maltose binding protein (MBP) (E. coli); assay: ELISA on MBP, DARPin titrated
scCD3εγ [9] = target: T1, scCD3εγ; assay: ELISA: plate-bound biotinylated scCD3εγ, His-tagged construct titrated without and with 100 nM soluble VEGF
Experimental: as §1, §2

scCD3εγ [10] = target: T1, scCD3εγ; assay: ELISA: plate-bound biotinylated scCD3εγ, His-tagged construct titrated, no VEGF
Experimental: as §1, §2

scCD3εγ [11] = target: T1, scCD3εγ; assay: ELISA: plate-bound biotinylated scCD3εγ, His-tagged construct titrated in presence of 100 nM soluble VEGF
Experimental: as §1, §2

scCD3εγ [12] = target: T1, scCD3εγ; assay: as above
Experimental: as §1, §2

scCD3εγ [13] = target: T1, scCD3εγ; assay: ELISA: plate-bound biotinylated scCD3εγ, His-tagged construct titrated, no VEGF
Experimental: as §1, §2

B1: Switchdrug DARPin 15-3 (designed binder)
chain: MRGSHHHHHHGSDLDKKLLEAARAGQDDEVRILLKAGADVNAKDSTGWTPLHLAAPWGHPEIVEVLLKAGADVNAKDFQGWTPLHLAAAAGHLEIVEVLLKAGADVNAKDWLGWTPLHLAASHGHLEIVEVLLKAGADVNAQDKSGKTPADLAARAGHQDIAEVLQKAAGSPTPTPTTPTPTPTTPTPTPTGSDLGKKLLEAARAGQDDEVRELLKAGADVNAKDKDGYTPLHLAAREGHLEIVEVLLKAGADVNAKDKDGYTPLHLAAREGHLEIVEVLLKAGADVNAQDKSGKTPADLAADAGHEDIAEVLQKAAGSPTPTPTTPTPTPTTPTPTPTGSDLGQKLLEAAWAGQDDEVRELLKAGADVNAKNSRGWTPLHTAAQTGHLEIFEVLLKAGADVNAKNDKRVTPLHLAAALGHLEIVEVLLKAGADVNARDSWGTTPADLAAKYGHQDIAEVLQKAA
notes: also called 2-in-1 DARPin15 in Format 3
scCD3εγ [1]
  EC50 (read off the curve): ~8 nM
scCD3εγ [2]
  shift in EC50 upon addition of 100 nM VEGF: ~54 fold

B2: Switchdrug DARPin 17-3 (designed binder)
chain: B1 chain with D15G, E20Q, D27L, I32E
notes: also called 2-in-1 DARPin17 in Format 3
scCD3εγ [1]
  EC50 (read off the curve): ~3 nM
scCD3εγ [2]
  shift in EC50 upon addition of 100 nM VEGF: ~100 fold

B3: Parent DARPin no 2 (SEQ ID NO: 87) (designed binder)
chain: DLGKKLLEAARAGQDDEVRILMANGADVNANDWFGITPLHLVVNNGHLEIIEVLLKYAADVNASDKSGWTPLHLAAYRGHLEIVEVLLKYGADVNAMDYQGYTPLHLAAEDGHLEIVEVLLKYGADVNAQDKFGKTAFDISIDNGNEDLAEILQKLN
[3]
  Kd: 147 nM

B4: Switchdrug DARPin 18-B (designed binder)
chain: MRGSHHHHHHGSDLDKKLLEAARAGQDDEVRILLKAGADVNAKDSTGWTPLHLAAPWGHPEIVEVLLKAGADVNAKDFQGWTPLHLAAAAGHLEIVEVLLKAGADVNAKDVYGWTPLHIAAASGHLEIVEVLLKAGADVNAKDWLGWTPLHLAASHGHLEIVEVLLKAGADVNAQDKSGKTPADLAARAGHQDIAEVLQKAAGSPTPTPTTPTPTPTTPTPTPTGSDLGKKLLQAARAGQLDEVRELLKAGADVNAKDQYGRTPLHLAAIKGHLEIVEVLLKAGADVNAKDSLGYTPLHLAAVEGPLEIVEVLLKAGADVNAKDAYGQTPLHIAAAWGHLEIVEVLLKAVADVNAQDKSGKTPADLAARAGHQDIAEVLQKAAGSPTPTPTTPTPTPTTPTPTPTGSDLGQKLLEAAWAGQDDEVRELLKAGADVNAKNSRGWTPLHTAAQTGHLEIFEVLLKAGADVNAKNDKRVTPLHLAAALGHLEIVEVLLKAGADVNARDSWGTTPADLAAKYGHQDIAEVLQKAA
notes: also called 2-in-1 DARPin18 in Format B
VEGF165
  EC50 (read off the curve): ~20 nM
scCD3εγ [4]
  EC50 (read off the curve): ~50 nM
scCD3εγ [5]
  shift in EC50 upon addition of 100 nM VEGF: ~19 fold

B5: Switchdrug DARPin 17-A (designed binder)
chain: MRGSHHHHHHGSDLGKKLLQAARAGQLDEVRELLKAGADVNAKDQYGRTPLHLAAIKGHLEIVEVLLKAGADVNAKDSLGYTPLHLAAVEGPLEIVEVLLKAGADVNAKDAYGQTPLHIAAAWGHLEIVEVLLKAVADVNAQDKSGKTPADLAARAGHQDIAEVLQKAAGSPTPTPTTPTPTPTTPTPTPTGSDLGQKLLEAAWAGQDDEVRELLKAGADVNAKNSRGWTPLHTAAQTGHLEIFEVLLKAGADVNAKNDKRVTPLHLAAALGHLEIVEVLLKAGADVNARDSWGTTPADLAAKYGHQDIAEVLQKAAGSPTPTPTTPTPTPTTPTPTPTGSDLGKKLLQAARAGQLDEVRELLKAGADVNAKDSTGWTPLHLAAPWGHPEIVEVLLKAGADVNAKDFQGWTPLHLAAAAGHLEIVEVLLKAGADVNAKDWLGWTPLHLAASHGHLEIVEVLLKAGADVNAQDKSGKTPADLAARAGHQDIAEVLQKAA
notes: also called 2-in-1 DARPin17 in Format A
scCD3εγ [6]
  shift in EC50 upon addition of 100 nM VEGF: ~90 fold
VEGF165
  EC50 (read off the curve): ~40 nM

B6: 2-in-1 DARPin 21 (SEQ ID NO: 90) (designed binder)
chain: DLGKKLLEAARAGQDDEVRILMANGADVNANDWFGITPLHLVVNNGHLEIIEVLLKYAADVNASDKSGWTPLHLAAYRGHLEIVEVLLKYGADVNAMDYQGYTPLHLAAEDGHLEIVEVLLKYGADVNAKDKFGKTPLHIAARAGHLEIVEVLLKAGADVNAADNTGTTPLHLAAYSGHLEIVEVLLKHGADVDASDVFGYTPLHLAAYWGHLEIVEVLLKNGADVNAMDSDGMTPLHLAAKWGYLEIVEVLLKHGADVNAQDKFGKTAFDISIDNGNEDLAEILQKAA
[7]
  EC50 (read off the curve): ~20 nM
[3]
  Kd: 66.9 nM
[8]
  EC50 (read off the curve): ~100 nM

B7: 2-in-1 DARPin 22 (SEQ ID NO: 91) (designed binder)
chain: B6 chain with K135R, A144N
[7]
  EC50 (read off the curve): ~10 nM
[3]
  Kd: 52.6 nM

B8: Switchdrug DARPin 18-1 (designed binder)
chain: MRGSHHHHHHGSDLGQKLLEAAWAGQDDEVRELLKAGADVNAKNSRGWTPLHTAAQTGHLEIFEVLLKAGADVNAKNDKRVTPLHLAAALGHLEIVEVLLKAGADVNARDSWGTTPADLAAKYGHQDIAEVLQKAAGSPTPTPTTPTPTPTTPTPTPTGSDLDKKLLEAARAGQDDEVRILLKAGADVNAKDSTGWTPLHLAAPWGHPEIVEVLLKAGADVNAKDFQGWTPLHLAAAAGHLEIVEVLLKAGADVNAKDVYGWTPLHIAAASGHLEIVEVLLKAGADVNAKDWLGWTPLHLAASHGHLEIVEVLLKAGADVNAQDKSGKTPADLAARAGHQDIAEVLQKAA
notes: also called 2-in-1 DARPin18 in Format 1
scCD3εγ [9]
  shift in EC50 upon addition of 100 nM VEGF: ~3 fold
scCD3εγ [10]
  EC50 (read off the curve): ~100 nM
scCD3εγ [11]
  EC50 (read off the curve): ~40 nM

B9: Switchdrug DARPin 18-A (designed binder)
chain: MRGSHHHHHHGSDLGKKLLQAARAGQLDEVRELLKAGADVNAKDQYGRTPLHLAAIKGHLEIVEVLLKAGADVNAKDSLGYTPLHLAAVEGPLEIVEVLLKAGADVNAKDAYGQTPLHIAAAWGHLEIVEVLLKAVADVNAQDKSGKTPADLAARAGHQDIAEVLQKAAGSPTPTPTTPTPTPTTPTPTPTGSDLGQKLLEAAWAGQDDEVRELLKAGADVNAKNSRGWTPLHTAAQTGHLEIFEVLLKAGADVNAKNDKRVTPLHLAAALGHLEIVEVLLKAGADVNARDSWGTTPADLAAKYGHQDIAEVLQKAAGSPTPTPTTPTPTPTTPTPTPTGSDLDKKLLEAARAGQDDEVRILLKAGADVNAKDSTGWTPLHLAAPWGHPEIVEVLLKAGADVNAKDFQGWTPLHLAAAAGHLEIVEVLLKAGADVNAKDVYGWTPLHIAAASGHLEIVEVLLKAGADVNAKDWLGWTPLHLAASHGHLEIVEVLLKAGADVNAQDKSGKTPADLAARAGHQDIAEVLQKAA
notes: also called 2-in-1 DARPin18 in Format A
scCD3εγ [12]
  EC50 (read off the curve): ~90 nM
scCD3εγ [6]
  shift in EC50 upon addition of 100 nM VEGF: ~2 fold
scCD3εγ [13]
  EC50 (read off the curve): ~200 nM
VEGF165
  EC50 (read off the curve): ~90 nM

B10: Switchdrug DARPin 18-3 (designed binder)
chain: MRGSHHHHHHGSDLDKKLLEAARAGQDDEVRILLKAGADVNAKDSTGWTPLHLAAPWGHPEIVEVLLKAGADVNAKDFQGWTPLHLAAAAGHLEIVEVLLKAGADVNAKDVYGWTPLHIAAASGHLEIVEVLLKAGADVNAKDWLGWTPLHLAASHGHLEIVEVLLKAGADVNAQDKSGKTPADLAARAGHQDIAEVLQKAAGSPTPTPTTPTPTPTTPTPTPTGSDLGKKLLEAARAGQDDEVRELLKAGADVNAKDKDGYTPLHLAAREGHLEIVEVLLKAGADVNAKDKDGYTPLHLAAREGHLEIVEVLLKAGADVNAQDKSGKTPADLAADAGHEDIAEVLQKAAGSPTPTPTTPTPTPTTPTPTPTGSDLGQKLLEAAWAGQDDEVRELLKAGADVNAKNSRGWTPLHTAAQTGHLEIFEVLLKAGADVNAKNDKRVTPLHLAAALGHLEIVEVLLKAGADVNARDSWGTTPADLAAKYGHQDIAEVLQKAA
notes: also called 2-in-1 DARPin18 in Format 3
scCD3εγ [1]
  EC50 (read off the curve): ~90 nM
